Key:
[1] = molecular target: T1, recombinant rat RGM A (rat); test: direct ELISA on rRatRGMA
T1 construct: also called rRatRGMA
T1 chain: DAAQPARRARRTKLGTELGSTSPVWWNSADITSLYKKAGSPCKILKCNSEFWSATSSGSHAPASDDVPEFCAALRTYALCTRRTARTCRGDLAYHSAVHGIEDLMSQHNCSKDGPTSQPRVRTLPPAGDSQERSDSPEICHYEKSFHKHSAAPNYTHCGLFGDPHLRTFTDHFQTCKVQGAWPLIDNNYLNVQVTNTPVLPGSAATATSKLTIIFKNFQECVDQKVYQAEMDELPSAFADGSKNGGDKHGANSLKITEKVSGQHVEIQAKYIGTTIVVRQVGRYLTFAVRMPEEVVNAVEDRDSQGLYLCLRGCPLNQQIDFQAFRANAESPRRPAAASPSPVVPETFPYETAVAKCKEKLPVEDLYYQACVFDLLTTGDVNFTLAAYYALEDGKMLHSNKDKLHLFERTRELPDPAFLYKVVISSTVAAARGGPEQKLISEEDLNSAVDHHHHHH

[2] = molecular target: T2, fc-coupled human RGM A light chain, fragment 0 (47-168) (human); test: direct ELISA on hRGMA 47-168/HuIgGFc
T2 construct: also called hRGM A light chain - fc; hRGMA 47-168/HuIgGFc
T2 sequence (chain, as listed by the source): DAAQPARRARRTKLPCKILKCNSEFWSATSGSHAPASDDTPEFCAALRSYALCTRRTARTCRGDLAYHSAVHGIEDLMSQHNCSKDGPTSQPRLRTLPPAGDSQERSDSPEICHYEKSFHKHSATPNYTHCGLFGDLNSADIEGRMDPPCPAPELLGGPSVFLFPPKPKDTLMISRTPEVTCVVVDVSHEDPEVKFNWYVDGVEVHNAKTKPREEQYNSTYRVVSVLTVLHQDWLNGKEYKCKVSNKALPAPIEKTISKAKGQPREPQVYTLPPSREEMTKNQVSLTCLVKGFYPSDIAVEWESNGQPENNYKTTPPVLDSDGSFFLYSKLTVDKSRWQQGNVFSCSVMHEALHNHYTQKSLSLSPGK

[3] = molecular target: T3, rat RGM A overexpressed on cells (BAF3 cells) (rat); test: FACS on BAF3-ratRGMA stable cell line, anti-rat IgG PE
T3 construct: also called BAF3 cells overexpressing ratRGM A
T3 chain: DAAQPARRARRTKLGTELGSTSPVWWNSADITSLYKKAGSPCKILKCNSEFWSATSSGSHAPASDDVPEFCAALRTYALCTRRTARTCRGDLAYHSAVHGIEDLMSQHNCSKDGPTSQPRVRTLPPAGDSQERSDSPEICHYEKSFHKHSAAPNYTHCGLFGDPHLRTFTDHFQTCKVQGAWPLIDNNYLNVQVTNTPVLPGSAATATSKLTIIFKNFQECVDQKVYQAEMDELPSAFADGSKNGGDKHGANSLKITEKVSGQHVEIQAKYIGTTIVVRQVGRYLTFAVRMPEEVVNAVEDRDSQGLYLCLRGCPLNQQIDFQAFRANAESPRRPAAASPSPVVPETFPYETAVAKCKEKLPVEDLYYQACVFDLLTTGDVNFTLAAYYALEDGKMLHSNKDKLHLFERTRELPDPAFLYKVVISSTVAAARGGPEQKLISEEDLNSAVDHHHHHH
Experimental: (ii) FACS analysis. Stable transfectants of HEK293 cells overexpressing hRGM A or BAF3 cells overexpressing ratRGM A were subjected to staining with unlabelled 5F9 or 8D1 MABs for more than 15 minutes at 4° in 0.1% BSNPBS buffer. Detection was carried out with a mouse anti-rat IgG PE antibody.
(§1) FAGS was carried out as described in section (ii).

[4] = molecular target: T4, fc-coupled full length human RGM A (47-422) (human); test: competition ELISA: fc-conjugated full length hRGM A (0.5 µg/ml) binding to coated BMP-2
T4 construct: the legends call the protein fc-coupled full length hRGM A fragment (47-422, counted on hRGM A); also called full length fc-conjugated hRGM A; Human RGM A-fc
T4 sequence (chain, as listed by the source): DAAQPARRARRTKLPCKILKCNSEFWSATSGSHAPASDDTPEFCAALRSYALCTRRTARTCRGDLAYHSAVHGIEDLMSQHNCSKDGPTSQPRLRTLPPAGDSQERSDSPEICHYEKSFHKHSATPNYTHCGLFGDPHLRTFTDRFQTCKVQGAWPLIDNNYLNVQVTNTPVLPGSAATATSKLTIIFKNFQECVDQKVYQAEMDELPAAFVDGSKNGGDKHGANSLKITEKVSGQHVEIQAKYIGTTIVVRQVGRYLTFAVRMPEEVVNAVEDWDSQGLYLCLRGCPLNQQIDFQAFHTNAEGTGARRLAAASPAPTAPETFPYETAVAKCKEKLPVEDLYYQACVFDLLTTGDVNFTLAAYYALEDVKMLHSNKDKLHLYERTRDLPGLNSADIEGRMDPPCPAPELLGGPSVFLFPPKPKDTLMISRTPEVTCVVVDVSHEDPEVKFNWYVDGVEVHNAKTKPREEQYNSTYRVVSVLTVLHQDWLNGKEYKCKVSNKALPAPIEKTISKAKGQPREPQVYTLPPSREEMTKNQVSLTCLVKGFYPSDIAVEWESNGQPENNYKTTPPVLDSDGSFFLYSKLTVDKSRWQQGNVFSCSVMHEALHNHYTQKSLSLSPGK
Experimental: After the incubation, unbound BMP-2 was removed in 3 separate wash steps with PBS containing 0.02% Tween 20. Blocking of the BMP-2 coated plates was done by adding 2001-JI per well of a 3% Bovine serum albumin (BSA), PBS, Tween 20(0.02%) blocking solution. After incubation for 1 h at 37° C., the blocking solution was removed and RGM A fragments or full length protein, conjugated with a human fc tag, with or without antibody, was added. In some experiments antibodies were preincubated with the fc-conjugated hRGM A proteins for 1 h at room temperature. The BMP-2 coated plates were incubated with hRGM A with or without antibodies for 1 hat 37° C. After 3 wash steps with PBS-Tween 20 (0.02%), plates were incubated with a Biotin-labeled anti-human fc antibody (1 mg/ml, diluted 1:200 in PBS containing 0.6% BSA, 0.02% Tween 20), Jackson ImmunoResearch catalog no: 709-065-149, for 1 h at 37° C. Unbound antibody was removed by 3 wash steps with PBS-Tween 20 (0.02%). […] Unbound Peroxidase-complex was removed in 3 subsequent wash steps (PBS-Tween 20 (0.02%) before adding the Peroxidase substrate (Immuno Pure TMB, Pierce#34021). The substrate reaction was stopped 1-30 min after its addition to the wells by 2.5 M H2SO4. Plates were analysed (OD determination) at a wave length of 450 nm using an Anthos photometer. […]

[5] = molecular target: T5, recombinant purified human RGM A (human, UniProt Q96B86 48-424, limits assumed); test: direct ELISA, plate coated with hRGM A at 2 µg/ml, biotinylated antibody in 1:5 dilution steps, streptavidin-HRP, OD 450 nm
T5 construct: Bought recombinant protein (R&D Systems); also called hRGM A; hRGMA
T5 sequence: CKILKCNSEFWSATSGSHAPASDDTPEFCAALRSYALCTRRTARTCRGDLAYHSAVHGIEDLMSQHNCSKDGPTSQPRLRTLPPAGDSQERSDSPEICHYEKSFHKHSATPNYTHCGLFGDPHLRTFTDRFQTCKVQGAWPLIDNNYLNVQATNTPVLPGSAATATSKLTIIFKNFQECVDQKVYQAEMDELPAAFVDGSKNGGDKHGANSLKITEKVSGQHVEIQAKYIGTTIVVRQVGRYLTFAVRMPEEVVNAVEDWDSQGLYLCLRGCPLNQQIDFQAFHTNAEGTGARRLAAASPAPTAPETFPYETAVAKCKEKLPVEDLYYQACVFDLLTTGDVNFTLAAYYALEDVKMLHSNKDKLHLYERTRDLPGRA
Experimental: (i) Direct binding ELISA plates were coated with hRGM A (R&D) at a concentration of 2 μg/ml in Carbonate buffer. The wells were then blocked with 2% Blocking solution (Bio-Rad) for 1 hour at room temperature. Biotinylated antibodies were serially diluted with a 1:5 dilution factor in 0.1% BSNPBS down the plate and incubated for 1 hour at room temperature. The detection reagent was a 1:10,000 dilution of streptavidin-HRP in 0.1% BSNPBS. Detection was done with a TMB reagent, which was stopped with 2N H₂SO₄ and OD was read at 450 nm.
as §1

- binding result [1]: no binding
- binding result [2]: binds
- binding result [3]: no binding
- binding result [4]: binds
- EC50 (read off the curve) [5]: ~0.2 µg/mL
B1: rat anti-human RGM A monoclonal antibody 8D1 (antibody, V domains shown)
VH: EVQLQQSGPELVKPGTSVKMSCKTSGYTFTSYVMHWVKQKPGQGLEWIGYIIPYNDNTKYNEKFKGKATLTSDKSSSTAYMELSSLTSEDSAVYYCARRNEYYGSSFFDYWGQGTTLTVSS
VL: DIQMTQSPASLSASLEEIVTITCQASQDIDNYLAWYHQKPGKSPRLLIYGATNLADGVPSRFSGSRSGTQFSLKINRLQIEDLGIYYCLQGYIPPRTFGGGTKLELKR
notes: Rat hybridoma antibody; also called ML68-8D1; MAB 8D1

From patent publication US20150183871A1 (AbbVie / Abbott, published 2015)
